# PMC9606946, “Programmed Aptamer Screening, Characterization, and Rapid Detection for α-Conotoxin MI”
# Values joined by “and” are separate entries in the source; they are usually repeats but may differ in a detail not shown here. Equal values may be shown once. Where no end group is shown, it is not given here.
# B1: MBMI-02 (ssDNA)
# DNA: ATTGGCACTCCACGCATAGGATTTGGGTTTCGGGATAAGGGGCAAAAGGACAGGTTTTGTCCTATGCGTGCTACCGTGAA
# B2: MBMI-01 (ssDNA)
# DNA: ATTGGCACTCCACGCATAGGTTTGGGGATGGGCAACGGTAAAAAGGGTCAAAAGGCTTTTCCTATGCGTGCTACCGTGAA
# B3: MBMI-22 (ssDNA)
# DNA: ATTGGCACTCCACGCATAGGCAAGAAGGGGGAGGGTGGTATGTGTCGGGGGGAGGGGTGGCCTATGCGTGCTACCGTGAA
# B4: MBMI-39 (ssDNA)
# DNA: ATTGGCACTCCACGCATAGGGTAGGGGATTTAAGGAGGGGCCTTAGGAGGGGGGGGGTAACCTATGCGTGCTACCGTGAA
# B5: MBMI-08 (ssDNA)
# DNA: ATTGGCACTCCACGCATAGGCAACGGGGGGGTGGGGAGAGAAGGGTTGAGTGACAATTTGCCTATGCGTGCTACCGTGAA
# B6: MBMI-51 (ssDNA)
# DNA: ATTGGCACTCCACGCATAGGAAGGTGGAATCGGAGGGGGTGCTTGGGTGGGGGTGGGATTCCTATGCGTGCTACCGTGAA
# B7: MBMI-94 (ssDNA)
# DNA: ATTGGCACTCCACGCATAGGAGCGGGGTTGGTTTGCGGGAGGGGGGGTGGAGGTAAGCTCCCTATGCGTGCTACCGTGAA
# B8: MBMI-03 (ssDNA)
# DNA: ATTGGCACTCCACGCATAGGGGCGCTTGTGGTGTAAGGGTTGGGTATATGTCGTAATAGGCCTATGCGTGCTACCGTGAA
# B9: MBMI-92 (ssDNA)
# DNA: ATTGGCACTCCACGCATAGGCTCGCGGAGGGAGGGGTTTTGGGGGGCGGGATGGTATTGGCCTATGCGTGCTACCGTGAA
# Biological target: T1, alpha-conotoxin MI (CTX-MI) (Conus magus, UniProt P01521 1-14, disulfide (positions not given here); not fully specified; also: two disulfides as in P01521)
# T1 chain: GRCCHPACGKNYSC-NH2
# Test: BLI
# Conditions: protein: commercial; tags: none; label: biotin
row,Binder,Kd [nM]
1,B1,2210
2,ATTTGGGTTTCGGGATAAGGGGCAAAAGGACAGGTTTTGT (ssDNA) [MBMI-02c],1290
3,B2,850
4,B3,21200
5,B4,430
6,B5,12000
7,B6,14000
8,CTCGCGGAGGGAGGGGTTTTGGGGGGCGGGATGGTATTGG (ssDNA) [MBMI-92c],1320
9,B7,2330
10,B8,3490
11,B9,260

# Same assay, conditions: protein: commercial; tags: none; label: biotin; antiparallel G-quadruplex
row,Binder,Kd
1,TTTGGGGATGGGCAACGGTAAAAAGGGTCAAAAGGCTTTT (structured_DNA) [MBMI-01c],870 nM and 729 nM

# Same assay, conditions: protein: commercial; tags: none; label: biotin; remaining predicted GQ core A
row,Binder,Kd [nM]
1,TTTGGCCATGGCCAACGGTAAAAAGGCTCAAAACCCTTTT (ssDNA) [M2],741

# Same assay, conditions: protein: commercial; tags: none; label: biotin; remaining predicted GQ cores A,B
row,Binder,Kd [nM]
1,TTTGGGGATGGGCAACGGTAAAAAGGGTCAAAACCCTTTT (ssDNA) [M3],1560

# Same assay, conditions: protein: commercial; tags: none; label: biotin; remaining predicted GQ cores C,D
row,Binder,Kd [nM]
1,TTTCCGGATGGGCAACGGTAAAAAGGGTCAAAAGGCTTTT (ssDNA) [M1],1520
